From article PMC4445001 (Molecular Therapy. Methods & Clinical Development, 2015)

B1: HAdV3 fiber knob mutant V239D (nondimerized, trimeric) (domain or fragment, human adenovirus type 3 (HAdV3))
chain: ALKNNTLWTGPKPEANCIIEYGKQNPDSKLTLILVKNGGIVNGYVTLMGASDYVNTLFKNKNVSINVELYFDATGHILPDSSSLKTDLELKYKQTADFSARGFMPSTTAYPFDLPNAGTHNENYIFGQCYYKASDGALFPLEVTVMLNKRLPDSRTSYVMTFLWSLNAGLAPETTQATLITSPFTFSYIREDD

Legend:
[1] = molecular target: JO-4 (affinity-enhanced junction opener; self-dimerizing HAdV3-V239D fiber knob) (human adenovirus type 3 (HAdV3)) (UniProt P04501); experiment: SPR
crystal structure = molecular target: the molecule itself; experiment: crystal structure

Molecule	Kd [1]	binding result (crystal structure)
Recombinant human DSG2 protein (desmoglein 2) (from UniProt Q14126 50-609) (receptor)	1.4 nM	
B1		binds
